Data as given in patent publication US20220064316A1 (published 2022).

B1: BCMA-4NP tool CAR (other)
chain: QVQLVQSGAEVKKPGSSVKVSCKASGGTFSNYWMHWVRQAPGQGLEWMGATYRGHSDTYYNQKFKGRVTITADKSTSTAYMELSSLRSEDTAVYYCARGAIYNGYDVLDNWGQGTLVTVSSGGGGSGGGGSGGGGSGGGGSDIQMTQSPSSLSASVGDRVTITCSASQDISNYLNWYQQKPGKAPKLLIYYTSNLHSGVPSRFSGSGSGTDFTLTISSLQPEDFATYYCQQYRKLPWTFGQGTKLEIKR
B2: BCMA-4 CAR (139103) (other)
chain: QVQLVESGGGLVQPGRSLRLSCAASGFTFSNYAMSWVRQAPGKGLGWVSGISRSGENTYYADSVKGRFTISRDNSKNTLYLQMNSLRDEDTAVYYCARSPAHYYGGMDVWGQGTTVTVSSASGGGGSGGRASGGGGSDIVLTQSPGTLSLSPGERATLSCRASQSISSSFLAWYQQKPGQAPRLLIYGASRRATGIPDRFSGSGSGTDFTLTISRLEPEDSAVYYCQQYHSSPSWTFGQGTKLEIKTTTPAPRPPTPAPTIASQPLSLRPEACRPAAGGAVHTRGLDFACDIYIWAPLAGTCGVLLLSLVITLYCKRGRKKLLYIFKQPFMRPVQTTQEEDGCSCRFPEEEEGGCELRVKFSRSADAPAYKQGQNQLYNELNLGRREEYDVLDKRRGRDPEMGGKPRRKNPQEGLYNELQKDKMAEAYSEIGMKGERRRGKGHDGLYQGLSTATKDTYDALHMQALPPR
notes: also called B4; JF32-78IB
B3: BCMA-2 CAR (139101) (other)
chain: QVQLQESGGGLVQPGGSLRLSCAASGFTFSSDAMTWVRQAPGKGLEWVSVISGSGGTTYYADSVKGRFTISRDNSKNTLYLQMNSLRAEDTAVYYCAKLDSSGYYYARGPRYWGQGTLVTVSSASGGGGSGGRASGGGGSDIQLTQSPSSLSASVGDRVTITCRASQSISSYLNWYQQKPGKAPKLLIYGASTLASGVPARFSGSGSGTHFTLTINSLQSEDSATYYCQQSYKRASFGQGTKVEIKTTTPAPRPPTPAPTIASQPLSLRPEACRPAAGGAVHTRGLDFACDIYIWAPLAGTCGVLLLSLVITLYCKRGRKKLLYIFKQPFMRPVQTTQEEDGCSCRFPEEEEGGCELRVKFSRSADAPAYKQGQNQLYNELNLGRREEYDVLDKRRGRDPEMGGKPRRKNPQEGLYNELQKDKMAEAYSEIGMKGERRRGKGHDGLYQGLSTATKDTYDALHMQALPPR
notes: also called UR96-08PA
B4: BCMA-11 CAR (139110) (other)
chain: QVQLVQSGGGLVKPGGSLRLSCAASGFTFSDYYMSWIRQAPGKGLEWVSYISSSGNTIYYADSVKGRFTISRDNAKNSLYLQMNSLRAEDTAVYYCARSTMVREDYWGQGTLVTVSSASGGGGSGGRASGGGGSDIVLTQSPLSLPVTLGQPASISCKSSESLVHNSGKTYLNWFHQRPGQSPRRLIYEVSNRDSGVPDRFTGSGSGTDFTLKISRVEAEDVGVYYCMQGTHWPGTFGQGTKLEIKTTTPAPRPPTPAPTIASQPLSLRPEACRPAAGGAVHTRGLDFACDIYIWAPLAGTCGVLLLSLVITLYCKRGRKKLLYIFKQPFMRPVQTTQEEDGCSCRFPEEEEGGCELRVKFSRSADAPAYKQGQNQLYNELNLGRREEYDVLDKRRGRDPEMGGKPRRKNPQEGLYNELQKDKMAEAYSEIGMKGERRRGKGHDGLYQGLSTATKDTYDALHMQALPPR
notes: also called UG65-93FB
B5: BCMA-9 CAR (139108) (other)
chain: QVQLVESGGGLVKPGGSLRLSCAASGFTFSDYYMSWIRQAPGKGLEWVSYISSSGSTIYYADSVKGRFTISRDNAKNSLYLQMNSLRAEDTAVYYCARESGDGMDVWGQGTTVTVSSASGGGGSGGRASGGGGSDIQMTQSPSSLSASVGDRVTITCRASQSISSYLNWYQQKPGKAPKLLIYAASSLQSGVPSRFSGSGSGTDFTLTISSLQPEDFATYYCQQSYTLAFGQGTKVDIKTTTPAPRPPTPAPTIASQPLSLRPEACRPAAGGAVHTRGLDFACDIYIWAPLAGTCGVLLLSLVITLYCKRGRKKLLYIFKQPFMRPVQTTQEEDGCSCRFPEEEEGGCELRVKFSRSADAPAYKQGQNQLYNELNLGRREEYDVLDKRRGRDPEMGGKPRRKNPQEGLYNELQKDKMAEAYSEIGMKGERRRGKGHDGLYQGLSTATKDTYDALHMQALPPR
notes: also called OG62-93QB
B6: BCMA-5 CAR (139104) (other)
chain: EVQLLETGGGLVQPGGSLRLSCAVSGFALSNHGMSWVRRAPGKGLEWVSGIVYSGSTYYAASVKGRFTISRDNSRNTLYLQMNSLRPEDTAIYYCSAHGGESDVWGQGTTVTVSSASGGGGSGGRASGGGGSEIVLTQSPATLSVSPGESATLSCRASQSVSSNLAWYQQKPGQAPRLLIYGASTRASGIPDRFSGSGSGTDFTLTISSLQAEDVAVYYCQQYGSSLTFGGGTKVEIKTTTPAPRPPTPAPTIASQPLSLRPEACRPAAGGAVHTRGLDFACDIYIWAPLAGTCGVLLLSLVITLYCKRGRKKLLYIFKQPFMRPVQTTQEEDGCSCRFPEEEEGGCELRVKFSRSADAPAYKQGQNQLYNELNLGRREEYDVLDKRRGRDPEMGGKPRRKNPQEGLYNELQKDKMAEAYSEIGMKGERRRGKGHDGLYQGLSTATKDTYDALHMQALPPR
notes: also called AR99-08FA
B7: BCMA-7 CAR (139106) (other)
chain: EVQLVETGGGLVQPGGSLRLSCAVSGFALSNHGMSWVRRAPGKGLEWVSGIVYSGSTYYAASVKGRFTISRDNSRNTLYLQMNSLRPEDTAIYYCSAHGGESDVWGQGTTVTVSSASGGGGSGGRASGGGGSEIVMTQSPATLSVSPGERATLSCRASQSVSSKLAWYQQKPGQAPRLLMYGASIRATGIPDRFSGSGSGTEFTLTISSLEPEDFAVYYCQQYGSSSWTFGQGTKVEIKTTTPAPRPPTPAPTIASQPLSLRPEACRPAAGGAVHTRGLDFACDIYIWAPLAGTCGVLLLSLVITLYCKRGRKKLLYIFKQPFMRPVQTTQEEDGCSCRFPEEEEGGCELRVKFSRSADAPAYKQGQNQLYNELNLGRREEYDVLDKRRGRDPEMGGKPRRKNPQEGLYNELQKDKMAEAYSEIGMKGERRRGKGHDGLYQGLSTATKDTYDALHMQALPPR
notes: also called QR91-12ZA
B8: BCMA-3 CAR (139102) (other)
chain: QVQLVQSGAEVKKPGASVKVSCKASGYTFSNYGITWVRQAPGQGLEWMGWISAYNGNTNYAQKFQGRVTMTRNTSISTAYMELSSLRSEDTAVYYCARGPYYYYMDVWGKGTMVTVSSASGGGGSGGRASGGGGSEIVMTQSPLSLPVTPGEPASISCRSSQSLLYSNGYNYVDWYLQKPGQSPQLLIYLGSNRASGVPDRFSGSGSGTDFKLQISRVEAEDVGIYYCMQGRQFPYSFGQGTKVEIKTTTPAPRPPTPAPTIASQPLSLRPEACRPAAGGAVHTRGLDFACDIYIWAPLAGTCGVLLLSLVITLYCKRGRKKLLYIFKQPFMRPVQTTQEEDGCSCRFPEEEEGGCELRVKFSRSADAPAYKQGQNQLYNELNLGRREEYDVLDKRRGRDPEMGGKPRRKNPQEGLYNELQKDKMAEAYSEIGMKGERRRGKGHDGLYQGLSTATKDTYDALHMQALPPR
notes: Chimeric antigen receptor; also called KR98-03KA

biological target: T1, BCMA-Fc antigen (R&D Systems) (UniProt Q02223 1-54); test: flow cytometry; BCMA-Fc staining of CAR-transduced JNL cells
T1 construct: also called BCMA fc fusion protein (R&D Systems, cat #193-BC-050); recombinant BCMA-Fc; not shown: Fc portion of the bought fusion protein
T1 sequence (looked up): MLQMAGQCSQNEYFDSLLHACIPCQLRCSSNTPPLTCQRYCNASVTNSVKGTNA
Description: Jurkat-NFAT-luciferase (JNL) cells transduced with BCMA CAR constructs were evaluated for activation in response to BCMA-expressing target cell lines. Small-scale viral supernatant samples were generated in HEK293T cells for transduction of JNL cells. On Day 3 following transduction, BCMA CAR-transduced JNL cells were incubated with target cells at an effector-to-target (E:T) ratio of 6:1. Target cell lines were: K562-BCMA (engineered to stably express BCMA), K562 (parental line), and BCMA positive multiple myeloma cell lines, NCI-H929 and RPMI 8226. JNL activation was measured using Bright-Glo substrate (Promega) on Day 4. CAR expression on transduced JNL was assessed on Day 7 with BCMA-Fc antigen and Biotin-Protein L reagent (Table 21).

Binder	% CAR+ (BCMA-Fc detection) [%]
B1	28.3
B2	49.5
B3	32
B4	42.7
B5	54.7
B6	28.9
B7	30.4
B8	0

biological target: T2, human BCMA (B-cell maturation antigen) on cells (human, UniProt Q02223 1-184); test: cell-based or functional assay
T2 sequence (looked up): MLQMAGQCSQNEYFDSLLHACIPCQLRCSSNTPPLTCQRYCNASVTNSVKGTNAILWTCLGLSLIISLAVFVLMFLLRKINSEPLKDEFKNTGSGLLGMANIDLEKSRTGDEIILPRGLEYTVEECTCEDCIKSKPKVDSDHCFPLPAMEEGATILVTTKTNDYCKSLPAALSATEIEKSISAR

Binder	JNL binding assay, ratio to K562; K562-BCMA [ratio]	JNL binding assay, ratio to K562; NCI-H929 [ratio]	JNL binding assay, ratio to K562; RPMI 8226 [ratio]	Proliferation CD3, ratio to no target; K562-BCMA [ratio]	Proliferation CD3, ratio to no target; KMS11-luc [ratio]	Proliferation CD3, ratio to no target; NCI-H929 [ratio]	Proliferation CD3, ratio to no target; RPMI 8226 [ratio]	Proliferation CD4, ratio to no target; K562-BCMA [ratio]	Proliferation CD4, ratio to no target; KMS11-luc [ratio]	Proliferation CD4, ratio to no target; NCI-H929 [ratio]
B2	4.47	3.31	6.25	7.37	8.63	8.64	8.14	9.21	8.6	9.86
B5	1.59	1.99	1.54	1.51	1.66	4.63	2.5	1.59	1.49	4.45
B6	2.34	2.34	2.4	1.62	1.61	1.72	1.73	2.19	1.9	2.23
B7	2.55	2.36	2.77	1.72	1.71	1.8	1.62	2.17	1.96	2.23

same assay, conditions: not given

Binder	Proliferation CD4, ratio to no target; RPMI 8226 [ratio]	Proliferation CD8, ratio to no target; K562-BCMA [ratio]	Proliferation CD8, ratio to no target; KMS11-luc [ratio]	Proliferation CD8, ratio to no target; NCI-H929 [ratio]	Proliferation CD8, ratio to no target; RPMI 8226 [ratio]
B2	10.1	5.66	8.74	7.42	6.19
B5	2.24	1.43	1.83	4.79	2.76
B6	2.15	0.99	1.27	1.11	1.25
B7	1.91	1.08	1.35	1.18	1.19
